B1: library; numbered along this chain (parent)
chain: MRKPRAAVGSGHRKQAASQEGRQKHAKNNSQAKPSACDGLARQPEEVVLQASVSSYHLFRDVAEVTAFRGSLLSWYDQEKRDLPWRRRAEDEMDLDRRAYAVWVSEVMLQQTQVATVINYYTGWMQKWPTLQDLASASLEEVNQLWAGLGYYSRGRRLQEGARKVVEELGGHMPRTAETLQQLLPGVGRYTAGAIASIAFGQATGVVDGNVARVLCRVRAIGADPSSTLVSQQLWGLAQQLVDPARPGDFNQAAMELGATVCTPQRPLCSQCPVESLCRARQRVEQEQLLASGSLSGSPDVEECAPNTGQCHLCLPPSEPWDQTLGVVNFPRKASRKPPREESSATCVLEQPGALGAQILLVQRPNSGLLAGLWEFPSVTWEPSEQLQRKALLQELQRWAGPLPATHLRHLGEVVHTFSHIKLTYQVYGLALEGQTPVTTVPPGARWLTQEEFHTAAVSTAMKKVFRVYQGQQPGTCMGSKRSQVSSPCSRKKPRMGQQVLDNFFRSHISTDAHSLNSAAQ

Variants of: B1
Assay: 8OG:A repair function score (normalized; synonymous = 0, nonsense = -1) (normalized log-likelihood score); higher = more repair activity (WT-like)
Conditions: with 8OG:A DNA repair reporter (GFP) in HEK-293 MUTYH KO cells
Summary of the method: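 Lentiviral MUTYH cDNA NNN codon-scan libraries were expressed in MUTYH knockout HEK-293 cells with 10 pg/ml doxycycline, and the cells received an 8OG:A GFP repair reporter together with mCherry. At 72 h, viable mCherry+ cells went into GFP+ (repair) or GFP− bins, three replicates per tile, before tile amplicons were sequenced. A repair function score was then built from per-tile Rosace fitness scores, anchored on the synonymous and nonsense distributions. Synonymous medians sat at 0 and nonsense at -1, and variants under 300 counts per million at the start were left out.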
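Further: cells sorted at 72 h after reporter transfection.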

Variant | 8OG:A repair function score
MRKPRAAVGSGHRKQAASQEGRQKHAKNNSQAKPSACDGLARQPEEVVLQASVSSYHLFRDVAEVTAFRGSLLSWYDQEKRDLPWRRRAEDEMDLDRRAYAVWVSEVMLQQTQVATVINYYTGWMQKWPTLQDLASASLEEVNQLWAGLGYYSRGRRLQEGARKVVEELGGHMPRTAETLQQLLPGVGRYTAGAIASIAFGQATGVVDGNVARVLWRVRAIGADPSSTLVSQQLWGLAQQLVDPARPGDFNQAAMELGATVCTPQRPLCSQCPVESLCRARQRVEQEQLLASGSLSGSPDVEECAPNTGQCHLCLPPSEPWDQTLGVVNFPRKASRKPPREESSATCVLEQPGALGAQILLVQRPNSGLLAGLWEFPSVTWEPSEQLQRKALLQELQRWAGPLPATHLRHLGEVVHTFSHIKLTYQVYGLALEGQTPVTTVPPGARWLTQEEFHTAAVSTAMKKVFRVYQGQQPGTCMGSKRSQVSSPCSRKKPRMGQQVLDNFFRSHISTDAHSLNSAAQ [C216W] | -1
MRKPRAAVGSGHRKQAASQEGRQKHAKNNSQAKPSACDGLARQPEEVVLQASVSSYHLFRDVAEVTAFRGSLLSWYDQEKRDLPWRRRAEDEMDLDRRAYAVWVSEVMLQQTQVATVINYYTGWMQKWPTLQDLASASLEEVNQLWAGLGYYSRGRRLQEGARKVVEELGGHMPRTAETLQQLLPGVGRYTAGAIASIAFGQATGVVDGNVARVLCRVRAIGADPSSTLVSQQLWGLAQQLVDPARPGDFNQAAMELGATVCTPQRPLCSQCPVESLCRARQRVEQEQLLASGSLSGSPDYEECAPNTGQCHLCLPPSEPWDQTLGVVNFPRKASRKPPREESSATCVLEQPGALGAQILLVQRPNSGLLAGLWEFPSVTWEPSEQLQRKALLQELQRWAGPLPATHLRHLGEVVHTFSHIKLTYQVYGLALEGQTPVTTVPPGARWLTQEEFHTAAVSTAMKKVFRVYQGQQPGTCMGSKRSQVSSPCSRKKPRMGQQVLDNFFRSHISTDAHSLNSAAQ [V301Y] | -0.219
MRKPRAAVGSGHRKQAASQEGRQKHAKNNSQAKPSACDGLARQPEEVVLQASVSSYHLFRDVAEVTAFRGSLLSWYDQEKRDLPWRRRAEDEMDLDRRAYAVWVSEVMLQQTQVATVINYYTGWMQKWPTLQDLASASLEEVNQLWAGLGYYSRGRRLQEGARKVVEELGGHMPRTAETLQQLLPGVGRYTAGAIASIAFGQATGVVDGNVARVLCRVRAIGADPSSTLVSQQLWGLAQQLVDPARPGDFNQAAMELGATVCTPQRPLCSQCPVESLCRARQRVEQEQLLASGSLSGSPDVEECAPNTGQCHLCLPPSEPWDQTLGVVNFPRKASRKPPREESSATCVLEQPGALGAQILLVQRPNSGLLAGLWEFPSVTWEPSEQLQRKALLQELQRWAGPLPATHLRHLGEVVHTFSHIKLTYQVYGLRLEGQTPVTTVPPGARWLTQEEFHTAAVSTAMKKVFRVYQGQQPGTCMGSKRSQVSSPCSRKKPRMGQQVLDNFFRSHISTDAHSLNSAAQ [A431R] | -0.0201
MRKPRAAVGSGHRKQAASQEGRQKHAKNNSQAKPSACDGLARQPEEVVLQASVSSYHLFRDVAEVTAFRGSLLSWYDQEKRDLPWRRRAEDEMDLDRRAYAVWVSEVMLQQTQVATVINYYTGWMQKWPTLQDLASASLEEVNQLWAGLGYYSRGRRLQEGARKVVEELGGHMPRTAETLQQLLPGVGRYTAGAIASIAFGQATGVVDGNVARVLCRVRAIGADPSSTLVSQQLWGLAQQLVDPARPGDFNQAAMELGATVCTPQRPLCSQCPVESLCRARQRVEQEQLLASGSLSGSPDVEECAPNTGQCHLCLPPSEPWDQTLGVVNFPRKASRKPPREESSATCVLEQPGALGAQILLVQRPNSGLLAGLWEFPSVTWEPSEQLQRKALLQELQRWAGPLPATHLRHLGEVVHTFSHIKLTYQVYGLALEGQTPVTTVPPGARWLTQEEFHTAAVSTAMKKVFRVYQGQQPGTCVGSKRSQVSSPCSRKKPRMGQQVLDNFFRSHISTDAHSLNSAAQ [M478V] | -0.00439
MRKPRAAVGSGHRKQAASQEGRQKHAKNNSQAKPSACDGLARQPEEVVLQASVSSYHLFRDVAEVTAFRGSLLSWYDQEKRDLPWRRRAEDEMDLDRRAYAVWVSEVMLQQTQVATVINYYTGWMQKWPTLQDLASASLEEVNQLWAGLGFYSRGRRLQEGARKVVEELGGHMPRTAETLQQLLPGVGRYTAGAIASIAFGQATGVVDGNVARVLCRVRAIGADPSSTLVSQQLWGLAQQLVDPARPGDFNQAAMELGATVCTPQRPLCSQCPVESLCRARQRVEQEQLLASGSLSGSPDVEECAPNTGQCHLCLPPSEPWDQTLGVVNFPRKASRKPPREESSATCVLEQPGALGAQILLVQRPNSGLLAGLWEFPSVTWEPSEQLQRKALLQELQRWAGPLPATHLRHLGEVVHTFSHIKLTYQVYGLALEGQTPVTTVPPGARWLTQEEFHTAAVSTAMKKVFRVYQGQQPGTCMGSKRSQVSSPCSRKKPRMGQQVLDNFFRSHISTDAHSLNSAAQ [Y151F] | -0.064
MRKPRAAVGSGHRKQAASQEGRQKHAKNNSQAKPSACDGLARQPEEVVLQASVSSYHLFRDVAEVTAFRGSLLSWYDQEKRDLPWRRRAEDEMDLDRRAYAVWVSEVMLQQTQVATVINYYTGWMQKWPTLQDLASASLEEVNQLWAGLGYYSRGRRLQEGARKVVEELGGHMPRTAETLQQLLPGVGRYTAGAIASIAFGQATGVVDGNVARVLCRVRAIGADPSSTLVSQQLWGLAQQLVDPAGPGDFNQAAMELGATVCTPQRPLCSQCPVESLCRARQRVEQEQLLASGSLSGSPDVEECAPNTGQCHLCLPPSEPWDQTLGVVNFPRKASRKPPREESSATCVLEQPGALGAQILLVQRPNSGLLAGLWEFPSVTWEPSEQLQRKALLQELQRWAGPLPATHLRHLGEVVHTFSHIKLTYQVYGLALEGQTPVTTVPPGARWLTQEEFHTAAVSTAMKKVFRVYQGQQPGTCMGSKRSQVSSPCSRKKPRMGQQVLDNFFRSHISTDAHSLNSAAQ [R246G] | -0.845
MRKPRAAVGSGHRKQAASQEGRQKHAKNNSQAKPSACDGLARQPEEVVLQASVSSYHLFRDVAEVTAFRGSLLSWYDQEKRDLPWRRRAEDEMDLDRRAYAVWVSEVMLQQTQVATVINYYTGWMQKWPTLQDLASASLEEVNQLWAGLGYYSRGRRLQEGARKVVEELGGHMPRTAETLQQLLPGVGRYTAGAIASIAFGQATGVVDGNVARVLCRVRAIGADPSSTLVSQQLWGLAQQLVDPARPGDFNQAAMELGATVCTPQRPLCSQCPVESLCRARQRVEQEQLLASGSLSGSPDVEECAPNTGQCHLCLPPSEPWDQTLGVVNFPRKASRKPPREESSATCVLEQPGALGAQILLVQRPNSGLLAGLWEFPSVTWEPSEQLQRKALLQELQRWAGPLPATHLRHLGEVVHTFSHIKLTYQVYGLALEGQTPVTTVPPGARWLTQEEFHTAAVSTAMKNVFRVYQGQQPGTCMGSKRSQVSSPCSRKKPRMGQQVLDNFFRSHISTDAHSLNSAAQ [K464N] | -0.146
MRKPRAAVGSGHRKQAASQEGRQKHAKNNSQAKPSACDGLARQPEEVVLQASVSSYHLFRDVAEVTAFRGSLLSWYDQEKRDLPWRRRAEDEMDLDRRAYAVWVSEVMLQQTQVATVINYYTGWMQKWPTLQDLASASLEEVNQLWAGLGYYSRGRRLQEGARKVVEELGGHMPRTAETLQQLLPGVGRYTAGAIASIAFGQATGVVDGNVARVLCRVRAIGADPSSTLVSQQLWGLAQQLVDPARPGDFNQAAMELGATVCTPQRPLCSQCPVESLCRARQRVEQEQLLASGSLSGSPDVEECAPNTGQCHLCLPPSEPWDQTLGVVNFPRKASRKPPREESSATCVHEQPGALGAQILLVQRPNSGLLAGLWEFPSVTWEPSEQLQRKALLQELQRWAGPLPATHLRHLGEVVHTFSHIKLTYQVYGLALEGQTPVTTVPPGARWLTQEEFHTAAVSTAMKKVFRVYQGQQPGTCMGSKRSQVSSPCSRKKPRMGQQVLDNFFRSHISTDAHSLNSAAQ [L349H] | -0.39
MRKPRAAVGSGHRKQAASQEGRQKHAKNNSQAKPSACDGLARQPEEVVLQASVSSYHLFRDVAEVTAFRGSLLSWYDQEKRDLPWRRRAEDEMDLDRRAYAVWVSEVMLQQTQVATVINYYTGWMQKWPTLQDLASASLEEVNQLWAGLGYYSRGRRLQEGARKVVEELGGHMPRTAETLQQLLPGVGRYTAGAIASIAFGQATGVVDGNVARVLCRVRAIGADPSSTLVSQQLWGLAQQLVDPARPGDFNQAAMELGATVCTPQRPLCSQCPVESLCRARQRVEQEQLLASGSLSGSPDVEECAPNTGQCHLCLPPSEPWDQTLGVVNFPRKASRKPPREESSATCVLEQPGALGAQILLVQRPNSGLLAGLWEFPSVTWEPSENLQRKALLQELQRWAGPLPATHLRHLGEVVHTFSHIKLTYQVYGLALEGQTPVTTVPPGARWLTQEEFHTAAVSTAMKKVFRVYQGQQPGTCMGSKRSQVSSPCSRKKPRMGQQVLDNFFRSHISTDAHSLNSAAQ [Q386N] | 0.0466
MRKPRAAVGSGHRKQAASQEGRQKHAKNNSQAKPSACDGLARQPEEVVLQASVSSYHLFRDVAEVTAFRGSLLSWYDQEKRDLPWRRRAEDEMDLDRRAYAVWVSEVMLQQTQVATVINYYTGWMQKWPTLQDLASASLEEVNQLWAGLGYYSRGRRLQEGARKVVEELGGHPPRTAETLQQLLPGVGRYTAGAIASIAFGQATGVVDGNVARVLCRVRAIGADPSSTLVSQQLWGLAQQLVDPARPGDFNQAAMELGATVCTPQRPLCSQCPVESLCRARQRVEQEQLLASGSLSGSPDVEECAPNTGQCHLCLPPSEPWDQTLGVVNFPRKASRKPPREESSATCVLEQPGALGAQILLVQRPNSGLLAGLWEFPSVTWEPSEQLQRKALLQELQRWAGPLPATHLRHLGEVVHTFSHIKLTYQVYGLALEGQTPVTTVPPGARWLTQEEFHTAAVSTAMKKVFRVYQGQQPGTCMGSKRSQVSSPCSRKKPRMGQQVLDNFFRSHISTDAHSLNSAAQ [M173P] | -0.654
MRKPRAAVGSGHRKQAASQEGRQKHAKNNSQAKPSACDGLARQPEEVVLQASVSSYHLFRDVAEVTAFRGSLLSWYDQEKRDLPWRRRAEDEMDLDRRAYAVWVSEVMLQQTQVATVINYYTGWMQKWPTLQDLASASLEEVNQLWAGLGYYSRGRRLNEGARKVVEELGGHMPRTAETLQQLLPGVGRYTAGAIASIAFGQATGVVDGNVARVLCRVRAIGADPSSTLVSQQLWGLAQQLVDPARPGDFNQAAMELGATVCTPQRPLCSQCPVESLCRARQRVEQEQLLASGSLSGSPDVEECAPNTGQCHLCLPPSEPWDQTLGVVNFPRKASRKPPREESSATCVLEQPGALGAQILLVQRPNSGLLAGLWEFPSVTWEPSEQLQRKALLQELQRWAGPLPATHLRHLGEVVHTFSHIKLTYQVYGLALEGQTPVTTVPPGARWLTQEEFHTAAVSTAMKKVFRVYQGQQPGTCMGSKRSQVSSPCSRKKPRMGQQVLDNFFRSHISTDAHSLNSAAQ [Q159N] | -0.144
MRKPRAAVGSGHRKQAASQEGRQKHAKNNSQAKPSACDGLARQPEEVVLQASVSSYHLFRDVAEVTAFRGSLLSWYDQEKRDLPWRRRAEDEMDLDRRAYAVWVSEVMLQQTQVATVINYYTGWMQKWPTLQDLASASLEEVNQLWAGLGYYSRGRRLQEGARKVVEELGGHMPRTAETLQQLLPGVGRYTAGAIASIAFGQATGVVDGNVARVLCRVRAIGADPSSTLVSQQLWGLAQQLVDPARPGDFNQAAMELGATVCTPQRPLCSQCPVESLCRARQRVEQEQLLASGSLSGSPDVEECAPNTGQCHLCLPPSEPWDQTLGVVNFPRKASRKPPREESSATCVLEQPGALGAQILLVQRPNSGLLAGLWEFPSVTWEPSEQLQRKALLQELQRWAGPLPAFHLRHLGEVVHTFSHIKLTYQVYGLALEGQTPVTTVPPGARWLTQEEFHTAAVSTAMKKVFRVYQGQQPGTCMGSKRSQVSSPCSRKKPRMGQQVLDNFFRSHISTDAHSLNSAAQ [T406F] | -0.539
